Measurements taken from patent US20230279089A1 (GlaxoSmithKline, published 2023).
Substitutions are numbered along the chain they refer to. Each block holds one binder with its values, some of them ahead of it.

How the values were obtained:
[1] = target: T1, Human BMP1 CD+CUB1 truncated antigen (human, UniProt P13497 121-434, limits assumed); assay: SPR, mAb captured on protein A, HBS-EP
T1 construct: domain: CD+CUB1
T1 sequence (looked up): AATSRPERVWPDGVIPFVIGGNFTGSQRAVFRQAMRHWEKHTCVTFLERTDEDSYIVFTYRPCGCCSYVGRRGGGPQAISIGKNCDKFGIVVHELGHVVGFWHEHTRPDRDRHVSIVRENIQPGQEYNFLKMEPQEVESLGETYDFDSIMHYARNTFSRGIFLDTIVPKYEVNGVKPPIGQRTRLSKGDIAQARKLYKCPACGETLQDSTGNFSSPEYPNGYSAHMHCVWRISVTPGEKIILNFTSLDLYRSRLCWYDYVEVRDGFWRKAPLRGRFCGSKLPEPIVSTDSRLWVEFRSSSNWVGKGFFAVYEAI
Procedure: The 16 lead panel antibodies expressed in HEK cells were evaluated for binding to a truncated version of human BMP containing the catalytic domain and truncated domain (Human BMP1 CD+CUB1 truncated antigen) by SPR using BIACORE T200. HBS-EP+ buffer was used and the experiment run at 25° C. Protein A was immobilised to a CM5 sensor chip via amine coupling. The lead panel antibodies were captured onto protein A surface. Human BMP1 CD+CUB1 was then passed over the captured antibodies at various concentrations.

Human BMP1-1 = target: T2, Human BMP1-1 (human, UniProt P13497-2 121-730, limits assumed); assay: cell-based or functional assay
T2 sequence (looked up): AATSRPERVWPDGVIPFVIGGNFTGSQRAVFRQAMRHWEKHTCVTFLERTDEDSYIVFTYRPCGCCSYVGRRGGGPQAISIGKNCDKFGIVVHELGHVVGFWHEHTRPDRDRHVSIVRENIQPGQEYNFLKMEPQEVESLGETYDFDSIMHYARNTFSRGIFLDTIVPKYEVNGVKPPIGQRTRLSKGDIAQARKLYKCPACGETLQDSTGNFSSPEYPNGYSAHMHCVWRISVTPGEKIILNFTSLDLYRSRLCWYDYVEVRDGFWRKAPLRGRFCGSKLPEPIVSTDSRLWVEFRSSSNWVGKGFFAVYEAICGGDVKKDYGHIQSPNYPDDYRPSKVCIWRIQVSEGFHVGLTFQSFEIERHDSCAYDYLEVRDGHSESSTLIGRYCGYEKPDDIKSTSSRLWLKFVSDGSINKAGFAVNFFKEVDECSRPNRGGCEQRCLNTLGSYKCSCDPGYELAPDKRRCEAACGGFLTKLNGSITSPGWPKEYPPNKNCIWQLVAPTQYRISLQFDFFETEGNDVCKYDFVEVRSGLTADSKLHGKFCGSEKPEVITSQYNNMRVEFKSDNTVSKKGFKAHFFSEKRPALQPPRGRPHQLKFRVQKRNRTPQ

Human TLL1 = target: T3, Human TLL1 (human, UniProt O43897 148-1013, limits assumed); assay: cell-based or functional assay
T3 sequence (looked up): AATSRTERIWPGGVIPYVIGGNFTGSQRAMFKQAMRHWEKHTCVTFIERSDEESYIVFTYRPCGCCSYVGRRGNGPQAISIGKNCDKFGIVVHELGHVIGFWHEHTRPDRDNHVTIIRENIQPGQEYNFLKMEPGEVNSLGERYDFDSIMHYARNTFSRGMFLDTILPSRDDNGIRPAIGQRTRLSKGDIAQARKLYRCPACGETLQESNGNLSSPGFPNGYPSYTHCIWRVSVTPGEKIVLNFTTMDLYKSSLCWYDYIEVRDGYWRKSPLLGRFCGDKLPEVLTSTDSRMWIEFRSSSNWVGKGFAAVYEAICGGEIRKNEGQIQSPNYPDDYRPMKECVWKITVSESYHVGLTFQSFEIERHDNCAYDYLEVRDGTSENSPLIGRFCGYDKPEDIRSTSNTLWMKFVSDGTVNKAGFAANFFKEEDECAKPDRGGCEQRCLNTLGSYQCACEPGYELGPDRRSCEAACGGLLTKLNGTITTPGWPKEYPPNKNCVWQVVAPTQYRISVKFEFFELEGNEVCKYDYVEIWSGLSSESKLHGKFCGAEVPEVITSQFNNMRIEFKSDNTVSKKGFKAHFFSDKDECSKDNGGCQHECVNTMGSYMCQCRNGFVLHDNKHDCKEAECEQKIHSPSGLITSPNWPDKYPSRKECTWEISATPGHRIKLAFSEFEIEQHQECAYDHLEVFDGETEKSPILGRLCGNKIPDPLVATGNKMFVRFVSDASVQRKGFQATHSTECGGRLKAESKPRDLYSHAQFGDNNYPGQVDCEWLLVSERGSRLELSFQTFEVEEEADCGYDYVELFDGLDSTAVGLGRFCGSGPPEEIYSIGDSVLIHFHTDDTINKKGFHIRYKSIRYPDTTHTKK

B2: 13Y039-152B02-2940 (antibody, human IgG1, kappa, V domains shown)
VH: QVQLVQSGAEVKKPGSSVKVSCKASGGTFSSDAISWVRQAPGQGLEWMGGIITNFGTATYAQKFQGRVTITADESTSTAYMELSSLRSEDTAVYYCARDVGVQLVYHGAFDIWGQGTMVTVSS
VL: DIQMTQSPSSLSASVGDRVTITCQASQDISNYLNWYQQKPGKAPKLLIYDASNLATGVPSRFSGSGSGTDFTFTISSLQPEDIATYYCQQDDYLPITFGGGTKVEIKR
notes: Fully human IgG1 LAGA, kappa; HEK expressed
- Kd [1]: 1.9 nM
- IC50, FRET enzyme activity, 62.5 pM huBMP1 (Human BMP1-1): 0.13 nM
- IC50, FRET enzyme activity, 250 pM biotinylated huTLL-1 (Human TLL1): 50 pM

B5: 13Y039-4B06-4324 (antibody, human IgG1, kappa, V domains shown)
VH: QVQLVQSGAEVKKPGASVKVSCKASGYTFRGYYMSWVRQAPGQGLEWMGWINPMSGETNYAQKFQGRVTMTRDTSISTAYMELSRLRSDDTAVYYCARDTGELDGMNWYFDLWGRGTLVTVSS
VL: EIVLTQSPATLSLSPGERATLSCRASQSVSSYLAWYQQKPGQAPRLLIYDASNRATGIPARFSGSGSGTDFTLTISSLEPEDFAVYYCQQSDSWPPTFGGGTKVEIKR
notes: as for B2
- Kd [1]: 3.9 nM
- IC50, FRET enzyme activity, 62.5 pM huBMP1 (Human BMP1-1): 20 pM
- IC50, FRET enzyme activity, 250 pM biotinylated huTLL-1 (Human TLL1): 30 pM

B6: 13Y039-4B06-4328 (antibody, human IgG1, kappa, V domains shown)
VH: B5 VH with R30H, S35N, M54L
VL: B5 VL
notes: as for B2
- Kd [1]: 2.8 nM
- IC50, FRET enzyme activity, 62.5 pM huBMP1 (Human BMP1-1): 30 pM
- IC50, FRET enzyme activity, 250 pM biotinylated huTLL-1 (Human TLL1): 40 pM

B7: 13Y039-4B06-4351 (antibody, human IgG1, kappa, V domains shown)
VH: B5 VH with R30S, M54N, N59F
VL: B5 VL
notes: as for B2
- Kd [1]: 1.9 nM
- IC50, FRET enzyme activity, 62.5 pM huBMP1 (Human BMP1-1): 30 pM
- IC50, FRET enzyme activity, 250 pM biotinylated huTLL-1 (Human TLL1): 50 pM

B8: 13Y039-4B06-4325 (antibody, human IgG1, kappa, V domains shown)
VH: B5 VH with R30W, M54Q
VL: B5 VL
notes: as for B2
- Kd [1]: 2.8 nM
- IC50, FRET enzyme activity, 62.5 pM huBMP1 (Human BMP1-1): 30 pM
- IC50, FRET enzyme activity, 250 pM biotinylated huTLL-1 (Human TLL1): 20 pM

B11: 13Y039-4B06-4364 (antibody, human IgG1, kappa, V domains shown)
VH: B5 VH with M54N, N59I
VL: B5 VL
notes: as for B2
- Kd [1]: 2.4 nM
- IC50, FRET enzyme activity, 62.5 pM huBMP1 (Human BMP1-1): 20 pM
- IC50, FRET enzyme activity, 250 pM biotinylated huTLL-1 (Human TLL1): 60 pM

B12: 13Y039-4B06-4373 (antibody, human IgG1, kappa, V domains shown)
VH: B5 VH with G31S, S35N, W50I, M54S, N59S, I76T, A79V, R85S, D89E
VL: B5 VL
notes: as for B2
- Kd [1]: 3.3 nM
- IC50, FRET enzyme activity, 62.5 pM huBMP1 (Human BMP1-1): 90 pM
- IC50, FRET enzyme activity, 250 pM biotinylated huTLL-1 (Human TLL1): 40 pM

B13: 13Y039-4B06-4376 (antibody, human IgG1, kappa, V domains shown)
VH: B5 VH with R30M, S35N, M54S
VL: B5 VL
notes: as for B2
- Kd [1]: 3.7 nM
- IC50, FRET enzyme activity, 62.5 pM huBMP1 (Human BMP1-1): 50 pM
- IC50, FRET enzyme activity, 250 pM biotinylated huTLL-1 (Human TLL1): 70 pM

The next binders have a lower Kd [1] than those just listed; values first:

- Kd [1]: 1.5 nM
- IC50, FRET enzyme activity, 62.5 pM huBMP1 (Human BMP1-1): 10 pM
- IC50, FRET enzyme activity, 250 pM biotinylated huTLL-1 (Human TLL1): 10 pM
B9: 13Y039-4B06-4327 (antibody, human IgG1, kappa, V domains shown)
VH: B5 VH with R30P, S35T, W50N, M54N, E57W
VL: B5 VL
notes: as for B2

- Kd [1]: 1.5 nM
- IC50, FRET enzyme activity, 62.5 pM huBMP1 (Human BMP1-1): 20 pM
- IC50, FRET enzyme activity, 250 pM biotinylated huTLL-1 (Human TLL1): 40 pM
B10: 13Y039-4B06-4348 (antibody, human IgG1, kappa, V domains shown)
VH: B5 VH with R30G, M54N, N59Y
VL: B5 VL
notes: as for B2

- Kd [1]: 1.4 nM
- IC50, FRET enzyme activity, 62.5 pM huBMP1 (Human BMP1-1): 0.31 nM
- IC50, FRET enzyme activity, 250 pM biotinylated huTLL-1 (Human TLL1): 80 pM
B3: 13Y039-152B02-2948 (antibody, human IgG1, kappa, V domains shown)
VH: B2 VH with S31D, D32F, T53P, N54I, F55Y, T59S, Q65L
VL: B2 VL
notes: as for B2

- Kd [1]: 0.8 nM
- IC50, FRET enzyme activity, 62.5 pM huBMP1 (Human BMP1-1): 0.25 nM
- IC50, FRET enzyme activity, 250 pM biotinylated huTLL-1 (Human TLL1): 90 pM
B4: 13Y039-152B02-2935 (antibody, human IgG1, kappa, V domains shown)
VH: B2 VH with S31E, D32S, T53P, N54T, G56D, A58T, T59N
VL: B2 VL
notes: as for B2

- Kd [1]: 0.3 nM
- IC50, FRET enzyme activity, 62.5 pM huBMP1 (Human BMP1-1): 0.4 nM
- IC50, FRET enzyme activity, 250 pM biotinylated huTLL-1 (Human TLL1): 18.2 nM
B1: 13Y039-127G03-2890 (antibody, human IgG1, kappa, V domains shown)
VH: QVQLVQSGAEVKKPGSSVKVSCKASGGTFSSYAISWVRQAPGQGLEWMGGIIPVFGSAYYAQKFQGRVTITADESTSTAYMELSSLRSEDTAVYYCAGEGRAYYGSESYDDSDYMDVWGKGTTVTVSS
VL: B2 VL with A55E, D91A, Y93I, L94F, I96L
notes: as for B2
